Measured values as given in patent US20040001822A1, “Y1-isolated molecules comprising epitopes containing sulfated moieties, antibodies to such epitopes, and uses thereof” (priority 2000, published 2004).

Key:
[1] = system: Leukemia Cells; experiment: FACS of leukemia samples: anti-CD162 versus Y1; assay type: binding, human; settings: 12 patient samples of Table 11
Method: Analysis of binding of scFv Y1 antibodies and anti-CD162 antibodies to diseased cells also illustrates that scFv Y1 has binding characteristics different from those of anti-CD162 antibodies. […] (Table F). Y1 binds to the leukemic cells in 10 of 12 samples. In contrast, anti-CD162 bound only 5 out of 12 samples. […] Thus, it may be concluded that, in leukemic cells, scFv Y1 binds to a ligand other than that recognized by anti-CD162.
Samples provided from hospitals. Patients sample 30 μl/tube. Add 5 μl/tube of CD33-APC (for AML) or CD19-APC (for B-CLL) or CD38-APC (for Multiple Myeloma). Add 5 μl/tube of CD45-PerCp and 5 μl of scFv-Y1 or control scFv-N31 or CD162-PE (KPL1). Incubate tubes 30 minutes at 4° C. with low shaking. Wash by adding 2 ml PBS and spin 5 minutes at 1200 rpm. Discard supernatant.
For a one step assay continue with the lysis step:
Add 500 μl BD Lysine solution diluted 1:10 with ddH2O (300 μl to patient sample). Vortex at high speed and incubate 12 minutes at 4° C. Wash as above. Discard supernatant. And add 500 μl PBS. The samples are read in the FACS using blood sample acquisition setup according to international standards.
For two or more assays: working buffer is PBS+1% BSA+0.05% sodium azide. Incubations and wash as above.
Lysis of the red blood cells is the final step in the assay, followed by resuspension with 500 μl PBS.

[2] = molecular target: T1, recombinant bacterial derived glycocalicin (Homo sapiens, UniProt P07359); experiment: Western blot on recombinant glycocalicin expressed in E. coli; assay type: binding; settings: E. coli cell lysates
T1 construct: GC, amino acid 1 to amino acid 493 of GPIbα; made in house; host or cells: E. coli BL21 DE3 (total cell lysate loaded on the gel)
Method: The DNA fragment encoding for glycocalicin (GC, amino acid 1 to amino acid 493 of GPIbα ) was cloned into an IPTG inducible prokaryotic vector cassette. E. coli (BL21 DE3) cells harboring the newly constructed plasmid were grown at 37° C. to O.D. 0.7-0.8, than at 37° C. for 3 hours for in the presence of IPTG for induction.
SDS-polyacrylamide gel loaded either with semi-purified human platelet derived glycocalicin (“GC”) or with E. coli cell lysates (“total”) derived from induced and non-induced cells were analyzed. Western blot analysis was performed with biotinylated Y1-scfv, polyclonal rabbit anti-human glycocalicin antibody, commercially available mouse anti-human CD42 monoclonal antibody (SZ2 Immunotech, PM640 Serotec, HIP1 Pharmigen, AN51 DAKO), and polyclonal antibody against the N-terminus of GPIbα (Sc-7071, Santa Cruz).
The DNA fragment encoding the N-terminal soluble part of human platelet GP1b-glycocalicin (GC, amino acid 1 to amino acid 493) was cloned into an IPTG inducible prokaryotic vector cassette. E. coli (BL21 DE3) cells harboring the newly constructed plasmid were grown at 37° C. to O.D. 0.7-0.8, than at 37° C. for 3 hours for in the presence of IPTG for induction. SDS-polyacrylamide gel loaded either with semi-purified human platelet derived GC or with E. coli cell lysates (total protein content) derived from induced and non-induced cells were analyzed. […]

[3] = system: Jurkat cells; experiment: FACS binding of IgG-Y1 compared with scFv-Y1; design: species or system human; settings: 5 ng IgG-Y1 versus 1 μg scFv-Y1, Jurkat cells
Method: Binding of full size IgG-Y1 molecule: Binding experiments were performed to determine the level of binding of the IgG-Y1 molecule compared to the binding level of the scFv-Y1 molecule. A two-step staining procedure was employed, wherein 5 ng of IgG-Y1 were reacted with both RAJI cells (negative control, FIG. 44) and Jurkat cells (Y1 positive cells, FIG. 44). For detection, PE-labeled goat anti-human IgG was used. Similarly, 1 μg of scFv-Y1 was reacted with Jurkat cells (FIG. 44), and PE-labeled rabbit anti-scFv was used for detection.

[4] = system: glycocalicin, platelet lysate, KG-1 cell lysate, Raji cell lysate; experiment: Western blot on glycocalicin, platelet, KG-1 and Raji lysates; assay type: binding, human; settings: FIG. 20
Text: Antibodies against GPIbα (CD42b) recognize platelet lysate and glycocalicin and but not KG-1 cell lysate (a Y1 binding positive myeloid cell line) or Raji cell lysate (a B cell line that is negative for Y1 binding at concentrations at which KG-1 cells are positive for Y1 binding). […] (FIG. 20).

[5] = system: platelet-rich-plasma (PRP); experiment: Ristocetin-induced aggregation of platelet-rich plasma after preincubation with scFv; assay type: cell-based, human; settings: scFv 25 μg/ml
Method: The effect of Y1 (scfv) on aggregation of platelet-rich-plasma (PRP) was tested at various concentrations of Y1. PRP was pre-incubated with Y1 scfv, Y17 scfv, or a control sTM-1cFv for 4 min at 37° C. before being exposed to ristocetin, an inducer of platelet agglutination and aggregation. A reversible inhibitory effect was observed when scFv was added to PRP prior to the addition of ristocetin, and it was dose dependent.
Blood was collected into a tube containing 3.8% sodium citrate. Platelet-rich plasma was prepared by centrifugation at 250×g for 10 minutes.
For platelet aggregation studies, platelet rich plasma (PRP) and washed platelets were stirred at 500 rpm at 37° C. in whole blood Lumiaggregometer (Chronolog, Havertown,Pa.). The difference in light transmission through the platelet suspension and suspending medium was taken as 100% aggregation. The effect of Y1 on platelet aggregation was evaluated by addition of different concentration of Y1 before the addition of agonist, and the effect was recorded for four minutes.

B1: Y1 scFv: fully human scFv clone binding platelets and myelogenous leukemia cells, SEQ ID NO: 25 (protein, listed as Homo sapiens)
scFv: MKYLLPTAAAGLLLLAAQPAMAEVQLVESGGGVVRPGGSLRLSCAASGFTFDDYGMSWVRQAPGKGLEWVSGINWNGGSTGYADSVKGRFTISRDNAKNSLYLQMNSLRAEDTAVYYCARMRAPVIWGQGTLVTVSRGGGGSGGGGSGGGGSSELTQDPAVSVALGQTVRITCQGDSLRSYYASWYQQKPGQAPVLVIYGKNNRPSGIPDRFSGSSSGNTASLTITGAQAEDEADYYCNSRDSSGNHVVFGGGTKLTVLGAAAEQKLISEEDLNGAA
For B1, the “leukemia samples whose leukemic cells are bound” value [1] was 10 of 12, the “recognition in Western blot” value [2] was “did not recognize” and the “more molecules needed for a level of detection similar to that of IgG-Y1” value [3] was “approximately 10^3 fold”. For the same molecule, the “recognition in Western blot” value [4] was “recognized both glycocalicin, platelet lysate, and KG-1 cells, but not Raji cell extract”, the “% aggregation” value [5] was 87% and the “% inhibition” value ([5]; listed as Y1) was “no significant inhibition”.
